The results in this text go back to patent US20220073581A1 (UCB, published 2022).

The target of assay [1] is Lysozyme (R&D Systems) (UniProt P00698 19-147). Kind of assay: SPR, Fab construct captured via anti-human F(ab)2, lysozyme 0.1-10 nM, Langmuir model. Background: In SPR one partner is held on a chip, and binding of the other changes the refractive index at the surface.
The target in assay [2] is T1, GM-CSF receptor, cognate for the human GM-CSF constructs (GM-CSF-Ra, R&D Systems) (UniProt P15509 23-320).
T1 construct: also called cognate GM-CSF receptor
T1 sequence (looked up): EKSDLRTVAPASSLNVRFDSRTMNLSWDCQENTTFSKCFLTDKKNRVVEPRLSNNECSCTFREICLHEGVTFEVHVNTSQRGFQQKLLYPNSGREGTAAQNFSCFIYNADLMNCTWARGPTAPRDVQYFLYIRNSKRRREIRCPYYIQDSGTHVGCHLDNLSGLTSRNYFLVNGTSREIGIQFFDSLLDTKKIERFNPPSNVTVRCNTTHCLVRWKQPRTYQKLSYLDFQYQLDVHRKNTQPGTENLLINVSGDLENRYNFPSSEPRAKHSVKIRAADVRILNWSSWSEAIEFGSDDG
Put plainly: SPR (Biacore), fusion captured on anti-human F(ab)2, 100 nM GM-CSF receptor injected.

In assay [3] the target is human recombinant IL-17A (human, UniProt Q16552 24-155, limits assumed). Put plainly: cell-based or functional assay.
Assay [4] concerns the target T2, IL-2-Rβ (IL-2 receptor β chain, R&D Systems) (UniProt P14784 27-239).
T2 construct: also called IL-2-sRβ
T2 sequence (looked up): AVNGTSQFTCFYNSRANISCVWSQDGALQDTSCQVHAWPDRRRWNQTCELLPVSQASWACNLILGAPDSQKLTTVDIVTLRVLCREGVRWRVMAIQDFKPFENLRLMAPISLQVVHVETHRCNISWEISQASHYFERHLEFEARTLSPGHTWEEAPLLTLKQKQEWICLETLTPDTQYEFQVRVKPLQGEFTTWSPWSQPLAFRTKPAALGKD
Kind of assay: SPR (Biacore), fusion captured on anti-human F(ab)2, 100 nM IL-2-Rβ injected.

For assay [5], the target named is IL-6 (R&D Systems) (UniProt P05231 30-212, limits assumed). Put plainly: SPR (Biacore), fusion captured on anti-human F(ab)2, 100 nM IL-6 injected alone or with 1000 nM HSA.
The target of assay [6] is T2, IL-2-Rβ (IL-2 receptor β chain, R&D …). Kind of assay: SPR (Biacore), fusion captured on anti-human F(ab)2, 100 nM IL-2-sRβ injected, with or without premixed 200 nM IL-15.

B1: HyHEL5/VHH D3L11Fwk3 (anti-lysozyme HyHEL5 Fab with anti-lysozyme VHH D3L11 inserted into framework 3 of the light chain) (bispecific antibody)
heavy: EVQLQQSGAELMKPGASVKISCKASGYTFSDYWIEWVKQRPGHGLEWIGEILPGSGSTNYHERFKGKATFTADTSSSTAYMQLNSLTSEDSGVYYCLHGNYDFDGWGQGTTLTVSSASTKGPSVFPLAPSSKSTSGGTAALGCLVKDYFPEPVTVSWNSGALTSGVHTFPAVLQSSGLYSLSSVVTVPSSSLGTQTYICNVNHKPSNTKVDKKVEPKSC
light: DIVLTQSPAIMSASPGEKVTMTCSASSSVNYMYWYQQKSGTSPKRWIYDTSKLASGVPVRFSGSGSGSGGGGSDVQLVESGGGSVQAGGSLRLSCAASGSTDSIEYMTWFRQAPGKAREGVAALYTHTGNTYYTDSVKGRFTISQDKAKNMAYLRMDSVKSEDTAIYTCGATRKYVPVRFALDQSSYDYWGQGTQVTVSSGGGGSGGGGSGGGGSTSYSLTISSMETEDAATYYCQQWGRNPTFGGGTKLEIKRTVAAPSVFIFPPSDEQLKSGTASVVCLLNNFYPREAKVQWKVDNALQSGNSQESVTEQDSKDSTYSLSSTLTLSKADYEKHKVYACEVTHQGLSSPVTKSFNRGEC
notes: also called Antibody: HyHEL5 Fab, Framework 3 Insert: VHH D3L11
In general, Kd refers to the concentration at which binding is half-saturated. A lower Kd goes with higher affinity. B1 showed a Kd in assay [1] of 0.026 nM.

B2: HyHEL5/VHH15Fwk3 (anti-lysozyme HyHEL5 Fab with anti-IL-6 VHH15 inserted into framework 3 of the light chain) (bispecific antibody)
heavy: B1 heavy
light: DIVLTQSPAIMSASPGEKVTMTCSASSSVNYMYWYQQKSGTSPKRWIYDTSKLASGVPVRFSGSGSGSGGGGSQVQLVESGGGSVQAGGSLRLSCVAASGYTGCTYDMRWYRQAPGKEREFVSGIDSDGRATYADSVKGRFTISQSNAKIAVYLQMDSLKLEDTAMYYCNLQCLRYPGEYYWGQGTQVTVSSGGGGSGGGGSGGGGSTSYSLTISSMETEDAATYYCQQWGRNPTFGGGTKLEIKRTVAAPSVFIFPPSDEQLKSGTASVVCLLNNFYPREAKVQWKVDNALQSGNSQESVTEQDSKDSTYSLSSTLTLSKADYEKHKVYACEVTHQGLSSPVTKSFNRGEC
notes: also called Antibody: HyHEL5 Fab, Framework 3 Insert: VHH15
Regarding B2, in assay [1], the Kd came to 0.31 nM. Against the preceding molecule, the Kd is about 12-fold higher.

B3: CA645/VHH D3L11Fwk3 (CA645 Fab with anti-lysozyme VHH D3L11 inserted into framework 3 of the light chain) (bispecific antibody)
heavy: EVQLLESGGGLVQPGGSLRLSCAVSGIDLSNYAINWVRQAPGKGLEWIGIIWASGTTFYATWAKGRFTISRDNSKNTVYLQMNSLRAEDTAVYYCARTVPGYSTAPYFDLWGQGTLVTVSSASTKGPSVFPLAPSSKSTSGGTAALGCLVKDYFPEPVTVSWNSGALTSGVHTFPAVLQSSGLYSLSSVVTVPSSSLGTQTYICNVNHKPSNTKVDKKVEPKSC
light: DIQMTQSPSSVSASVGDRVTITCQSSPSVWSNFLSWYQQKPGKAPKLLIYEASKLTSGVPSRFSGSGSGSGGGGSDVQLVESGGGSVQAGGSLRLSCAASGSTDSIEYMTWFRQAPGKAREGVAALYTHTGNTYYTDSVKGRFTISQDKAKNMAYLRMDSVKSEDTAIYTCGATRKYVPVRFALDQSSYDYWGQGTQVTVSSGGGGSGGGGSGGGGSTDFTLTISSLQPEDFATYYCGGGYSSISDTTFGGGTKVEIKRTVAAPSVFIFPPSDEQLKSGTASVVCLLNNFYPREAKVQWKVDNALQSGNSQESVTEQDSKDSTYSLSSTLTLSKADYEKHKVYACEVTHQGLSSPVTKSFNRGEC
notes: also called Antibody: CA645 Fab, Framework 3 Insert: VHH D3L11
In turn, B3 returned a Kd in assay [1] of 0.48 nM.

B4: CA645/GM-CSFCH1 (human) (CA645 Fab with human GM-CSF at the C-terminus of CH1, for comparison) (Fab, V domains shown)
VH: EVQLLESGGGLVQPGGSLRLSCAVSGIDLSNYAINWVRQAPGKGLEWIGIIWASGTTFYATWAKGRFTISRDNSKNTVYLQMNSLRAEDTAVYYCARTVPGYSTAPYFDLWGQGTLVTVSS
VL: DIQMTQSPSSVSASVGDRVTITCQSSPSVWSNFLSWYQQKPGKAPKLLIYEASKLTSGVPSRFSGSGSGTDFTLTISSLQPEDFATYYCGGGYSSISDTTFGGGTKVEIKR
notes: also called constant domain (CH1) fusion of the GM-CSF peptide (human)
For the molecule B4, the binding result in assay [2] is given as “binds”.

B5: CA645 Fab-Fwk3 CA497 dsscFv (vLvH) (bispecific antibody)
heavy: EVQLLESGGGLVQPGGSLRLSCAVSGIDLSNYAINWVRQAPGKGLEWIGIIWASGTTFYATWAKGRFTISRDNSGGGGSGGGGSAIQLTQSPSSLSASVGDRVTITCKASESVSSSMYSYMHWYQQKPGKAPKLLIYRASNLESGVPSRFSGSGSGTDFTLTISSLQPEDFATYYCQQSWTAPRTFGCGTKVEIKGGGGSGGGGSGGGGSEVQLVESGGGLVKPGGSLRLSCAASGVIFSDYYMAWVRQAPGKCLEWVASINFNADISYYRESVKGRFTISRDDSKNTLYLQMNSLKTEDTAVYYCTTDANRQNYDWFAYWGQGTLVTVSSGGGGSGGGGSKNTVYLQMNSLRAEDTAVYYCARTVPGYSTAPYFDLWGQGTLVTVSSASTKGPSVFPLAPSSKSTSGGTAALGCLVKDYFPEPVTVSWNSGALTSGVHTFPAVLQSSGLYSLSSVVTVPSSSLGTQTYICNVNHKPSNTKVDKKVEPKSC
light: DIQMTQSPSSVSASVGDRVTITCQSSPSVWSNFLSWYQQKPGKAPKLLIYEASKLTSGVPSRFSGSGSGTDFTLTISSLQPEDFATYYCGGGYSSISDTTFGGGTKVEIKRTVAAPSVFIFPPSDEQLKSGTASVVCLLNNFYPREAKVQWKVDNALQSGNSQESVTEQDSKDSTYSLSSTLTLSKADYEKHKVYACEVTHQGLSSPVTKSFNRGEC
Take B5: in assay [3], the “IL-17A EC50 (ng/ml), neutralisation of IL-17A (IL-6 secretion by Hela cells), with HSA” value is 10.8 ng/mL and the “IL-17A EC50 (ng/ml), neutralisation of IL-17A (IL-6 secretion by Hela cells), without HSA” value is 10.5 ng/mL.

B6: CA645/IL-15Fwk3 with bovine short linker (Fab)
heavy: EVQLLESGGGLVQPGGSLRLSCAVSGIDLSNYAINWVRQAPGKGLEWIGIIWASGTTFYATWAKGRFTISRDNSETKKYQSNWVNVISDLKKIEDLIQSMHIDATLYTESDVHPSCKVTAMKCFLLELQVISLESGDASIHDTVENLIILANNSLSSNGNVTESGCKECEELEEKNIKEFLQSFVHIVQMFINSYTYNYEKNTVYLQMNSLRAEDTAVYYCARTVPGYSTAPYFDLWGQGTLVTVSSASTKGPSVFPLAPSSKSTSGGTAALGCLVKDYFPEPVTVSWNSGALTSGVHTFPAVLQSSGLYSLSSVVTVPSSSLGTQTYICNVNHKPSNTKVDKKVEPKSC
light: B5 light
notes: also called CA645 Fab heavy chain with human IL-15 inserted into framework 3 with bovine short linker
As to B6, in assay [4], the binding result is on record as “binds”.

B7: CA645/IL-15Fwk3 with bovine long linker (Fab)
heavy: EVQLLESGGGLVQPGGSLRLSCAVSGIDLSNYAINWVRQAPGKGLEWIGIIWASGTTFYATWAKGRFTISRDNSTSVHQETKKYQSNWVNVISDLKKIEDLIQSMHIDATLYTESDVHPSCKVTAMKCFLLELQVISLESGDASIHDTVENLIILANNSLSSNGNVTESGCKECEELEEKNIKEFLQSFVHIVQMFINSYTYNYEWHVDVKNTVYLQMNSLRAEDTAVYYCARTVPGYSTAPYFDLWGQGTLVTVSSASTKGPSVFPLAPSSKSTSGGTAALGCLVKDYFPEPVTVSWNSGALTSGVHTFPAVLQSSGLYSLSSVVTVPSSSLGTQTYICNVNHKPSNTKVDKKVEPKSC
light: B5 light
notes: also called CA645 Fab heavy chain with human IL-15 inserted into framework 3 with bovine long linker
For the molecule B7, in assay [4], the binding result is listed as “binds”.

B8: CA645 Fab-Fwk3 CA497 dsscFv (vHvL) (bispecific antibody)
heavy: EVQLLESGGGLVQPGGSLRLSCAVSGIDLSNYAINWVRQAPGKGLEWIGIIWASGTTFYATWAKGRFTISRDNSGGGGSGGGGSEVQLVESGGGLVKPGGSLRLSCAASGVIFSDYYMAWVRQAPGKCLEWVASINFNADISYYRESVKGRFTISRDDSKNTLYLQMNSLKTEDTAVYYCTTDANRQNYDWFAYWGQGTLVTVSSGGGGSGGGGSGGGGSAIQLTQSPSSLSASVGDRVTITCKASESVSSSMYSYMHWYQQKPGKAPKLLIYRASNLESGVPSRFSGSGSGTDFTLTISSLQPEDFATYYCQQSWTAPRTFGCGTKVEIKGGGGSGGGGSKNTVYLQMNSLRAEDTAVYYCARTVPGYSTAPYFDLWGQGTLVTVSSASTKGPSVFPLAPSSKSTSGGTAALGCLVKDYFPEPVTVSWNSGALTSGVHTFPAVLQSSGLYSLSSVVTVPSSSLGTQTYICNVNHKPSNTKVDKKVEPKSC
light: B5 light
As to B8, in assay [3], the “IL-17A EC50 (ng/ml), neutralisation of IL-17A (IL-6 secretion by Hela cells), with HSA” value stood at 8.7 ng/mL and the “IL-17A EC50 (ng/ml), neutralisation of IL-17A (IL-6 secretion by Hela cells), without HSA” value was 10.6 ng/mL.

B9: CA645/GM-CSFFwk3 (human) (CA645 Fab with human GM-CSF inserted into framework 3 of the VH domain) (Fab)
heavy: not shown
light: B5 light
notes: also called CA645/hGM-CSF antibody fusion protein
Turning to B9, the binding result in assay [2] is listed as “binds”.

B10: CA645/IL-15Fwk3 with 2xG4S linker (Fab)
heavy: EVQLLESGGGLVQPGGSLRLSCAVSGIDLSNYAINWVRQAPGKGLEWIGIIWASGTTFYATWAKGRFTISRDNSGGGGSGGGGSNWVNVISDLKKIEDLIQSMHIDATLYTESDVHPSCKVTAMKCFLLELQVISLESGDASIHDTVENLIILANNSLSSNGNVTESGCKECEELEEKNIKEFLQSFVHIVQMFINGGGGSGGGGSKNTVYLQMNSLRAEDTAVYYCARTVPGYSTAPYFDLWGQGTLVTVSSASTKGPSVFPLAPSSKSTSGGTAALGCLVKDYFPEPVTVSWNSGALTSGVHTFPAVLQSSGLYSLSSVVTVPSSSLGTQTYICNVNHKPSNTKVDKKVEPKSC
light: B5 light
notes: also called CA645 Fab heavy chain with human IL-15 inserted into framework 3 with 2xG4S linker
With B10, the binding result in assay [4] is “binds”.

B11: CA645/VHH15Fwk3 (CA645 Fab with anti-IL-6 camelid VHH15 inserted into framework 3 of the VH domain) (bispecific antibody)
heavy: EVQLLESGGGLVQPGGSLRLSCAVSGIDLSNYAINWVRQAPGKGLEWIGIIWASGTTFYATWAKGRFTISRDNSGGGGSGGGGSQVQLVESGGGSVQAGGSLRLSCVAASGYTGCTYDMRWYRQAPGKEREFVSGIDSDGRATYADSVKGRFTISQSNAKIAVYLQMDSLKLEDTAMYYCNLQCLRYPGEYYWGQGTQVTVSSGGGGSGGGGSKNTVYLQMNSLRAEDTAVYYCARTVPGYSTAPYFDLWGQGTLVTVSSASTKGPSVFPLAPSSKSTSGGTAALGCLVKDYFPEPVTVSWNSGALTSGVHTFPAVLQSSGLYSLSSVVTVPSSSLGTQTYICNVNHKPSNTKVDKKVEPKSC
light: B5 light
notes: also called CA645/VHH15 antibody fusion protein
Take B11: the binding result in assay [5] is recorded as “binds”.

B12: CA497/IL-15Fwk3 (anti-IL-17A CA497 Fab with human IL-15 inserted into framework 3 of the VH domain) (Fab)
heavy: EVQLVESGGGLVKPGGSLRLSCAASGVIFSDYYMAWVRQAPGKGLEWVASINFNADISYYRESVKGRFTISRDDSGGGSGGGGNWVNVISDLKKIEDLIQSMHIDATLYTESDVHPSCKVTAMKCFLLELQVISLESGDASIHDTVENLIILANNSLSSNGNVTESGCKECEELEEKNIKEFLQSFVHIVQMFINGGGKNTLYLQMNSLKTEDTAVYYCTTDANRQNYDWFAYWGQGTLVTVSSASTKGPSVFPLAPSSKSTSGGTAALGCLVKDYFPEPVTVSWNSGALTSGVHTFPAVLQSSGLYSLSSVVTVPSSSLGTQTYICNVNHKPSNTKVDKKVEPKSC
light: AIQLTQSPSSLSASVGDRVTITCKASESVSSSMYSYMHWYQQKPGKAPKLLIYRASNLESGVPSRFSGSGSGTDFTLTISSLQPEDFATYYCQQSWTAPRTFGQGTKVEIKRTVAAPSVFIFPPSDEQLKSGTASVVCLLNNFYPREAKVQWKVDNALQSGNSQESVTEQDSKDSTYSLSSTLTLSKADYEKHKVYACEVTHQGLSSPVTKSFNRGEC
notes: also called CA497/IL-15 antibody fusion protein
For the molecule B12, the binding result in assay [6] is recorded as “binds”.
